From paper PMC2650857
Like-named read-outs stand apart in the source and are kept apart here.

Experiments:
[1] = biological target: MOP receptor stably expressed in CHO-K1 cells (plasma membranes) (UniProt P35372); assay: radioligand binding
[2] = biological target: MOP receptor stably expressed in CHO-K1 cells (plasma membranes) (UniProt P35372); assay: radioligand binding; remark: listed apart in the source

Sequence of UniProt P35372 (P35372 whole entry): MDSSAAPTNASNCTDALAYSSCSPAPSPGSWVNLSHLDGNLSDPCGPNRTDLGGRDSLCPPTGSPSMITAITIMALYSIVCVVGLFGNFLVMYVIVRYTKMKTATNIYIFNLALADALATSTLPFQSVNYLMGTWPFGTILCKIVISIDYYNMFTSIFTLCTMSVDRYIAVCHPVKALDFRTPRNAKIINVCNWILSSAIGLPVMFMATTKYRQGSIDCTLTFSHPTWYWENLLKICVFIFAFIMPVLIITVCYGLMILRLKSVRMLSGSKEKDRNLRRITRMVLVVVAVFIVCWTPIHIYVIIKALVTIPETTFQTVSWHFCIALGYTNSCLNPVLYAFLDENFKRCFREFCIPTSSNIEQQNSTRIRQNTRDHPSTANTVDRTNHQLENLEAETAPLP

Ki [1]: 11 nM
Ki [2]: 6.7 nM
Substance: DAMGO, [D-Ala^2, NMePHe^4, Gly^5-ol]enkephalin (peptide)
